Source: publication PMC4989169

Tests used:
[1] = molecular target: active MASP-2cf (human); assay: enzyme inhibition assay (equilibrium KI from residual activity, photometric); enzymes co-incubated with serial dilutions of the inhibitors for 2 h at room temperature; 20 mM HEPES, 145 mM NaCl, 5 mM CaCl2, 0.05% Triton X-100, pH 7.5; Z-Lys-SBzl substrate, read at 410 nm
[2] = molecular target: active MASP-3cf (catalytic fragment of active MASP-3 containing the CCP1-CCP2-SP domains) (human) (UniProt P48740); assay: as above
[3] = molecular target: active MASP-3cf (catalytic fragment of active MASP-3 containing the CCP1-CCP2-SP domains) (human) (UniProt P48740); assay: enzyme inhibition assay (equilibrium KI from residual activity, photometric); Ca2+-free buffer: 20 mM HEPES, 150 mM NaCl, 0.1 mM EDTA, 0.05% Triton-X100, pH 7.4
[4] = molecular target: TFMI-3_HA (human) (UniProt P10646); assay: SPR; ProteOn XPR36, GLM chip; TFMI-3_HA captured on immobilised anti-HA antibody (50-80 RU), MASP-3cf injected; 20 mM HEPES, 150 mM NaCl, 5 mM CaCl2, 0.05% Triton X-100, pH 7.4; 1:1 Langmuir model

Row | Molecule | Ki [1] [nM] | Ki [2] [nM] | Ki [3] [nM] | Kd [4] [nM] | koff [4] [s⁻¹] | kon [4] [M⁻¹ s⁻¹]
1 | TFPI-based MASP-3 Inhibitor (TFMI-3) (from UniProt P10646 121-178) (designed binder) | 75000 | 11.1 | 9.9 | – | – | –
2 | active MASP-3cf (catalytic fragment of active MASP-3 containing the CCP1-CCP2-SP domains) (enzyme) IIGGRNAEPGLFPWQALIVVEDTSRVPNDKWFGSGALLSASWILTAAHVLRSQRRDTTVIPVSKEHVTVYLGLHDVRDKSGAVNSSAARVVLHPDFNIQNYNHDIALVQLQEPVPLGPHVMPVCLPRLEPEGPAPHMLGLVAGWGISNPNVTVDEIISSGTRTLSDVLQYVKLPVVPHAECKTSYESRSGNYSVTENMFCAGYYEGGKDTCLGDSGGAFVIFDDLSQRWVVQGLVSWGGPEECGSKQVYGVYTKVSNYVDWVWEQMGLPQSVVEPQVER | – | – | – | 17.7 | 0.00093 | 52500
